The values that follow come from publication PMC10148854, “A link between STK signalling and capsular polysaccharide synthesis in Streptococcus suis” (Nature Communications, 2023).

As a reminder, the stoichiometry N is the number of molecules, sites or subunits per partner or assembly.

One experiment deals with T1, CpsB (rCpsB) (Streptococcus suis, UniProt Q9X4U8).
T1 construct: gene cps2D; rs02785 in pET-28a, His-tag, expressed in E. coli BL21(DE3), HisTrap purified; capsule locus tyrosine phosphatase (PHP type, Mn-dependent)
The experiment can be described thus: colorimetric phosphatase assay, absorbance […] nm. The note with it: 50 nM enzyme, 16 uM pNPP, 1 mM MnCl2, 20 mM Tris pH 8.0, 150 mM NaCl, 37 °C. The experiment is classed as biochemical.

The target of experiment [1] is rCpsB-His (Streptococcus suis). In words: SPR.
Experiment [2] has as its target CcpS, as crystallised (Streptococcus suis). The experiment can be described thus: crystal structure; sitting-drop vapour diffusion at 277 K; 0.1 M Tris-HCl pH 8.0, 15% ethanol; 1.6 Å; molecular replacement with IreB (PDB 5US5).

`O=[N+]([O-])c1ccc(OP(=O)(O)O)cc1` [pNPP, p-nitrophenyl phosphate]: the relative activity entry at CpsB (rCpsB) is on record as “Colorimetric phosphatase assays of CpsB activity were performed using p-nitrophenyl phosphate (pNPP)”. With rCcpS-T4VT7V (natural protein), the fold higher affinity than rCcpS-T4ET7E in experiment [1] was > 10 fold. CcpS, as crystallised (natural protein): the stoichiometry N in experiment [2] came out at 2.
